The nature of the data set: total protein half-life in vivo (active degradation + dilution); higher = more stable protein.
The mark [1] stands for this setting: E. coli NCM3722 delta-clpP delta-lon delta-hslV, growth: N-lim chemostat, doubling time 6 h.
The mark [2] stands for this setting: E. coli NCM3722 delta-clpP, growth: N-lim chemostat, doubling time 6 h.
The mark [3] stands for this setting: E. coli NCM3722 delta-hslV, growth: N-lim chemostat, doubling time 6 h.
Where [4] appears, read: E. coli NCM3722 delta-lon, growth: N-lim chemostat, doubling time 6 h.
Where [5] appears, read: E. coli NCM3722 delta-smpB, growth: N-lim chemostat, doubling time 6 h.
[6] abbreviates: wild type E. coli NCM3722, growth: C-lim chemostat, doubling time 3 h.
The mark [7] stands for this setting: wild type E. coli NCM3722, growth: C-lim chemostat, doubling time 6 h.
Setting [8] is: wild type E. coli NCM3722, growth: C-lim chemostat, doubling time 12 h.
[9] abbreviates: wild type E. coli NCM3722, growth: N-lim chemostat, doubling time 6 h.
Setting [10] is: wild type E. coli NCM3722, growth: N-lim chemostat, doubling time 12 h.
The mark [11] stands for this setting: wild type E. coli NCM3722, growth: P-lim chemostat, doubling time 6 h.
The mark [12] stands for this setting: wild type E. coli NCM3722, growth: P-lim chemostat, doubling time 12 h.

± gives the standard deviation of the averaged measurements. A value given as a limit tells only on which side of the number the result lay.

“MTISELLQYCMAKPGAEQSVHNDWKATQIKVEDVLFAMVKEVENRPAVSLKTSPELAELLRQQHSDVRPSRHLNKAHWSTVYLDGSLPDSQIYYLVDASYQQAVNLLPEEKRKLLVQL [P0AF50]”: the “total protein half-life in vivo” value runs as follows: under setting [1], 6.83 ± 0.78 h; under setting [2], 5.39 ± 0.71 h; under setting [3], 5.05 h; under setting [4], 5.47 ± 0.13 h; under setting [5], 4.39 h; under setting [6], > 4 h. Moreover, the “total protein half-life in vivo” value reads like this: under setting [7], 4.6917 ± 0.0045 h; under setting [8], 7.14 ± 1.4 h; under setting [9], 3.752 ± 0.03 h; under setting [10], 8.4 ± 3 h; under setting [11], 4.6 ± 1.2 h; under setting [12], 9.9 ± 0.1 h.

Regarding “MLDLFKAIGLGLVVLLPLANPLTTVALFLGLAGNMNSAERNRQSLMASVYVFAIMMVAYYAGQLVMDTFGISIPGLRIAGGLIVAFIGFRMLFPQQKAIDSPEAKSKSEELEDEPSANIAFVPLAMPSTAGPGTIAMIISSASTVRQSSTFADWVLMVAPPLIFFLVAVILWGSLRSSGAIMRLVGKGGIEAISRLMGFLLVCMGVQFIINGILEIIKTYH [P0AEY1]”, the “total protein half-life in vivo” value runs as follows: under setting [2], 6.57 ± 0.74 h; under setting [3], 5.91 h; under setting [4], 6.14 ± 0.6 h; under setting [5], 6.12 ± 0.25 h; under setting [7], 5.73 ± 0.56 h; under setting [8], 11.1 ± 0.56 h. Further, the “total protein half-life in vivo” value by setting is: under setting [10], 10.7 h; under setting [11], 6.23 ± 0.11 h; under setting [12], 13 ± 1 h.

As for “MLKQVEIFTDGSCLGNPGPGGYGAILRYRGREKTFSAGYTRTTNNRMELMAAIVALEALKEHCEVILSTDSQYVRQGITQWIHNWKKRGWKTADKKPVKNVDLWQRLDAALGQHQIKWEWVKGHAGHPENERCDELARAAAMNPTLEDTGYQVEV [P0A7Y4]”, the “total protein half-life in vivo” value came out at 6.46 ± 0.89 h under setting [2]; 5.92 ± 0.082 h under setting [7]; 9.26 h under setting [8]; 4.7 ± 0.96 h under setting [9]; 6.5 ± 0.82 h under setting [11].

For the sequence “MSQNVYQFIDLQRVDPPKKPLKIRKIEFVEIYEPFSEGQAKAQADRCLSCGNPYCEWKCPVHNYIPNWLKLANEGRIFEAAELSHQTNTLPEVCGRVCPQDRLCEGSCTLNDEFGAVTIGNIERYINDKAFEMGWRPDMSGVKQTGKKVAIIGAGPAGLACADVLTRNGVKAVVFDRHPEIGGLLTFGIPAFKLEKEVMTRRREIFTGMGIEFKLNTEVGRDVQLDDLLSDYDAVFLGVGTYQSMRGGLENEDADGVYAALPFLIANTKQLMGFGETRDEPFVSMEGKRVVVLGGGDTAMDCVRTSVRQGAKHVTCAYRRDEENMPGSRREVKNAREEGVEFKFNVQPLGIEVNGNGKVSGVKMVRTEMGEPDAKGRRRAEIVAGSEHIVPADAVIMAFGFRPHNMEWLAKHSVELDSQGRIIAPEGSDNAFQTSNPKIFAGGDIVRGSDLVVTAIAEGRKAADGIMNWLEV”, the “total protein half-life in vivo” value worked out at 5.1 ± 0.5 h under setting [1]; 4.59 ± 0.21 h under setting [2]; 4.73 ± 0.05 h under setting [3]; 5.25 ± 0.19 h under setting [4]; 4.63 ± 0.37 h under setting [5]; 2.7 ± 0.04 h under setting [6]. The “total protein half-life in vivo” value came out at 4.602 ± 0.032 h under setting [7]; 7.68 ± 0.49 h under setting [8]; 4.9 ± 0.24 h under setting [9]; 7.719 ± 0.058 h under setting [10]; 4.54 ± 0.39 h under setting [11]; 8.48 ± 0.63 h under setting [12].

As for “MQNRLTIKDIARLSGVGKSTVSRVLNNESGVSQLTRERVEAVMNQHGFSPSRSARAMRGQSDKVVAIIVTRLDSLSENLAVQTMLPAFYEQGYDPIMMESQFSPQLVAEHLGVLKRRNIDGVVLFGFTGITEEMLAHWQSSLVLLARDAKGFASVCYDDEGAIKILMQRLYDQGHRNISYLGVPHSDVTTGKRRHEAYLAFCKAHKLHPVAALPGLAMKQGYENVAKVITPETTALLCATDTLALGASKYLQEQRIDTLQLASVGNTPLMKFLHPEIVTVDPGYAEAGRQAACQLIAQVTGRSEPQQIIIPATLS”, the “total protein half-life in vivo” value worked out at 5.44 ± 0.36 h under setting [1]; 5.57 h under setting [2]; 5.41 ± 1 h under setting [3]; 5.53 ± 0.32 h under setting [4]; 4.96 ± 0.47 h under setting [5]; 2.888 ± 0.0064 h under setting [6]. Further, the “total protein half-life in vivo” value under setting [7] was 5.6 ± 0.49 h; the “total protein half-life in vivo” value under setting [8] came out at 12.4 ± 2.4 h; the “total protein half-life in vivo” value under setting [9] came to 5.0404 ± 0.0037 h; the “total protein half-life in vivo” value under setting [10] worked out at 10.5 ± 1.1 h; the “total protein half-life in vivo” value under setting [11] stood at 4.72 ± 0.12 h; the “total protein half-life in vivo” value under setting [12] turned out to be 10.2 ± 1.8 h.

Turning to “MYYPFVRKALFQLDPERAHEFTFQQLRRITGTPFEALVRQKVPAKPVNCMGLTFKNPLGLAAGLDKDGECIDALGAMGFGSIEIGTVTPRPQPGNDKPRLFRLVDAEGLINRMGFNNLGVDNLVENVKKAHYDGVLGINIGKNKDTPVEQGKDDYLICMEKIYAYAGYIAINISSPNTPGLRTLQYGEALDDLLTAIKNKQNDLQAMHHKYVPIAVKIAPDLSEEELIQVADSLVRHNIDGVIATNTTLDRSLVQGMKNCDQTGGLSGRPLQLKSTEIIRRLSLELNGRLPIIGVGGIDSVIAAREKIAAGASLVQIYSGFIFKGPPLIKEIVTHI [P0A7E1]”, the “total protein half-life in vivo” value turned out to be 6.89 ± 0.98 h under setting [1]; 6.3 ± 1.1 h under setting [2]; 6.7 ± 0.85 h under setting [3]; 6.48 ± 0.29 h under setting [4]; 6.46 ± 0.65 h under setting [5]; 3.04 ± 0.24 h under setting [6]. Besides, the “total protein half-life in vivo” value under setting [7] came to 5.72 ± 0.16 h; the “total protein half-life in vivo” value under setting [8] was found to be 13.1 ± 0.45 h; the “total protein half-life in vivo” value under setting [9] is 6.26 ± 0.34 h; the “total protein half-life in vivo” value under setting [10] is 12.5 ± 0.72 h; the “total protein half-life in vivo” value under setting [11] came out at 6.03 ± 0.28 h; the “total protein half-life in vivo” value under setting [12] came out at 14.2 ± 1.6 h.

On to “MATPYISMAGIGKSFGPVHALKSVNLTVYPGEIHALLGENGAGKSTLMKVLSGIHEPTKGTITINNISYNKLDHKLAAQLGIGIIYQELSVIDELTVLENLYIGRHLTKKICGVNIIDWREMRVRAAMMLLRVGLKVDLDEKVANLSISHKQMLEIAKTLMLDAKVIIMDEPTSSLTNKEVDYLFLIMNQLRKEGTAIVYISHKLAEIRRICDRYTVMKDGSSVCSGIVSDVSNDDIVRLMVGRELQNRFNAMKENVSNLAHETVFEVRNVTSRDRKKVRDISFSVCRGEILGFAGLVGSGRTELMNCLFGVDKRAGGEIRLNGKDISPRSPLDAVKKGMAYITESRRDNGFFPNFSIAQNMAISRSLKDGGYKGAMGLFHEVDEQRTAENQRELLALKCHSVNQNITELSGGNQQKVLISKWLCCCPEVIIFDEPTRGIDVGAKAEIYKVMRQLADDGKVILMVSSELPEIITVCDRIAVFCEGRLTQILTNRDDMSEEEIMAWALPQE”, for which the “total protein half-life in vivo” value is, setting by setting: under setting [5], > 8 h; under setting [6], 2.84 ± 0.095 h; under setting [7], 5.265 ± 0.0056 h; under setting [9], 6.14 h; under setting [12], 10.6 h.

“MTALALFDLLKPNYALATQVEFTDPEIVAEYITYPSPNGHGEVRGYLVKPAKMSGKTPAVVVVHENRGLNPYIEDVARRVAKAGYIALAPDGLSSVGGYPGNDDKGRELQQQVDPTN [Q7DFU6]”: under setting [1], the “total protein half-life in vivo” value was found to be 2.25 h.

On to “MSIQNEMPGYNEMNQYLNQQGTGLTPAEMHGLISGMICGGNDDSSWLPLLHDLTNEGMAFGHELAQALRKMHSATSDALQDDGFLFQLYLPDGDDVSVFDRADALAGWVNHFLLGLGVTQPKLDKVTGETGEAIDDLRNIAQLGYDEDEDQEELEMSLEEIIEYVRVAALLCHDTFTHPQPTAPEVQKPTLH [P0A8C4]”, for which the “total protein half-life in vivo” value was > 8 h under setting [1]; 4.56 ± 0.28 h under setting [2]; 3.63 ± 0.19 h under setting [3]; 3.96 ± 0.8 h under setting [4]; 3.76 ± 0.7 h under setting [5]; 2.648 ± 0.026 h under setting [6]. Besides, the “total protein half-life in vivo” value under setting [7] worked out at 5.18 ± 0.36 h; the “total protein half-life in vivo” value under setting [8] turned out to be 8.97 ± 0.18 h; the “total protein half-life in vivo” value under setting [9] came out at 3.86 ± 0.19 h; the “total protein half-life in vivo” value under setting [10] is 5.64 ± 1 h; the “total protein half-life in vivo” value under setting [11] is 5.02 ± 1.2 h; the “total protein half-life in vivo” value under setting [12] came to 9.3 h.
